The assay addresses T1, human IgE (human, UniProt P01854-1 1-428, FITC label in the BMMC experiments).
T1 construct: also called standard IgE; myeloma IgE
The assay is described as follows: method not stated.

T1 sequence (P01854 other isoform, or with tags, fused parts or gaps): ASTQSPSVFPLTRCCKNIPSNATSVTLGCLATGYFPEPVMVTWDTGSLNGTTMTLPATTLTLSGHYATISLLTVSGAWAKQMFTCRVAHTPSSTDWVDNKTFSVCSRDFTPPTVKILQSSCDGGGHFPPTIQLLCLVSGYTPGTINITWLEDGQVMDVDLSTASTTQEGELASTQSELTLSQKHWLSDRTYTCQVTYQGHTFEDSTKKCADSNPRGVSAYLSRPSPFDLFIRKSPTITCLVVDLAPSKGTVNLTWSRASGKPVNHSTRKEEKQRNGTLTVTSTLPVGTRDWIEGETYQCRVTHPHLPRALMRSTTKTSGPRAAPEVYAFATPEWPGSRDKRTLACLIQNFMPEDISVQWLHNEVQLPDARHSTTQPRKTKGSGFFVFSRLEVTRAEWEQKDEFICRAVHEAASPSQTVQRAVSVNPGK

B1: monoclonal anti-human IgE antibody P6.2 (antibody, V domains shown)
VH: QVQLQQSGAELVRPGTSVKVSCKASGYAFTNYLIEWVKQRPGQGLEWIGVINPGSGFTKYNEKFKGKATLTADKSSSTAYMHLSSLTSDDSAVYFCAREDVYSWFAYWGQGTLVTVSA
VL: DIVLTQSPASLAVSLGQRATISCRASESVDSYGNSFMHWYQQKPGQPPKLLIYRTSNLESGIPARFSGSGSRTDFTLTINPVEADDVATYFCQQSYEDPFTFGSGTKLEIK
notes: also called mAb P6.2; mAb 6.2
Molecule B1 displayed a Kd of 2540 nM.

What is called Kd is the concentration at which binding is half-saturated. Read a high Kd as lower affinity.

Values taken from patent US20160168268A1 (University of California, published 2016).
